Reference: patent US20190307847A1 (NGM BIOPHARMACEUTICALS, published 2019)

Target: mouse FGFR4/β-klotho complex co-expressed in rat L6 myoblast cells (mouse, UniProt Q03142 17-799; Q99N32 1-1043)
Experiment: cell-based or functional assay

Chain of mouse FGFR4/β-klotho complex co-expressed in rat L6 myoblast cells (Q03142 17-799, chain 1 of 2): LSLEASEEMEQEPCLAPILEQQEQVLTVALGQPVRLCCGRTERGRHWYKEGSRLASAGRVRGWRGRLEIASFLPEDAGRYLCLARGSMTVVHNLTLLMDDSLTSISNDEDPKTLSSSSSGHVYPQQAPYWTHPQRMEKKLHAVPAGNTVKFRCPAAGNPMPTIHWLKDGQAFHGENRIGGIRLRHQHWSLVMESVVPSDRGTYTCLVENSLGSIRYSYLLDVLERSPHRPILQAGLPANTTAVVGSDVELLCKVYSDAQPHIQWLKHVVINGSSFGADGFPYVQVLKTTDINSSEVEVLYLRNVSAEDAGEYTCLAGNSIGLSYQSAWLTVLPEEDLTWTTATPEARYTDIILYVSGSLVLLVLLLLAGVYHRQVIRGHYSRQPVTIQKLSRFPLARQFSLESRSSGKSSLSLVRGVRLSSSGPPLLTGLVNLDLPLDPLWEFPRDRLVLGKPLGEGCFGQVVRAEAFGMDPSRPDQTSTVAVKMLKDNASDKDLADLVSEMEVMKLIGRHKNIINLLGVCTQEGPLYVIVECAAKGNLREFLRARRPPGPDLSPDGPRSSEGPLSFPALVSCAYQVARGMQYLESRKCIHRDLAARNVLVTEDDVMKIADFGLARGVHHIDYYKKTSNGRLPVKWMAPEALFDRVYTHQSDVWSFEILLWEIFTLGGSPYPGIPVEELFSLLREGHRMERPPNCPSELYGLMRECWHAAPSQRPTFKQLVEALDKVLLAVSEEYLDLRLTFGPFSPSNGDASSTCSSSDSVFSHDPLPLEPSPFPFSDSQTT
Chain of mouse FGFR4/β-klotho complex co-expressed in rat L6 myoblast cells (Q99N32 whole entry, chain 2 of 2): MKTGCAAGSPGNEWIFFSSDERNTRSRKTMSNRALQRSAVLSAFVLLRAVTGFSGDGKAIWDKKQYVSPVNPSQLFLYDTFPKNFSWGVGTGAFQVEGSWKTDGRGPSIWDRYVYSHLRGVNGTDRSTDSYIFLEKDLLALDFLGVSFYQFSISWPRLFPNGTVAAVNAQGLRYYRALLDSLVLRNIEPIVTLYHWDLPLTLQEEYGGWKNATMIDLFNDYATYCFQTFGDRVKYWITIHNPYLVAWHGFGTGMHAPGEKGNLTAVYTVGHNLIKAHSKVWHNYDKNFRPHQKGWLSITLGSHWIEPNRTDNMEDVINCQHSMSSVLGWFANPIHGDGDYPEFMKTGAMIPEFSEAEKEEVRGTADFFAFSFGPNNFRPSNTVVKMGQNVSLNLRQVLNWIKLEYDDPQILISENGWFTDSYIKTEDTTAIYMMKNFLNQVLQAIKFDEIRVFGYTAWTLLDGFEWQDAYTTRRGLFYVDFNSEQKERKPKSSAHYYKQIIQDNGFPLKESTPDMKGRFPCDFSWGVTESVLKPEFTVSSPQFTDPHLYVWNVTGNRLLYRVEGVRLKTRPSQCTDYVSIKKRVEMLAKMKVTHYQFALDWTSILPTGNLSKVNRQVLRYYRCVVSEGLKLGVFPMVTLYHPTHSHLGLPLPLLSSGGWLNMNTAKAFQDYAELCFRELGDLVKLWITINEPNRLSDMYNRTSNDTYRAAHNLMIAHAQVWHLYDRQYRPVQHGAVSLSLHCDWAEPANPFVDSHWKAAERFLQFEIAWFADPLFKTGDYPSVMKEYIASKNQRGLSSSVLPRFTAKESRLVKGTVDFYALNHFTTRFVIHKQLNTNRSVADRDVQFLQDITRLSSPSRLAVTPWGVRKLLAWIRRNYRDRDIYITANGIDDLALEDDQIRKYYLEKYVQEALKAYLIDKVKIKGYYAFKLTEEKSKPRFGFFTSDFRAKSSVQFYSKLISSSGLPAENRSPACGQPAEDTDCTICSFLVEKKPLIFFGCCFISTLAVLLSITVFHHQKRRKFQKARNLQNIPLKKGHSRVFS

- EC50 (pM), ELK luciferase assay in L6 cells: 38.3 pM
- Emax (fold potentiation), ELK luciferase assay in L6 cells: 1.85 fold potentiation
B1: FGF19 variant M70 (ligand)
chain: MRDSSPLVHYGWGDPIRLRHLYTSGPHGLSSCFLRIRADGVVDCARGQSAHSLLEIKAVALRTVAIKGVHSVRYLCMGADGKMQGLLQYSEEDCAFEEEIRPDGYNVYRSEKHRLPVSLSSAKQRQLYKNRGFLPLSHFLPMLPMVPEEPEDLRGHLESDMFSSPLETDSMDPFGLVTGLEAVRSPSFEK
